# Results as given in patent publication US20250339569A1 (3B PHARMACEUTICALS, published 2025).
# Starred links: 1 amine or outer side, 2 acyl side, 3 side chain; linkers in the order of their positions; H or OH if unused. Positions of bridges follow the written chain, without caps; N, C: chain ends. Non-standard residues stand in square brackets, D forms with d. Primed or numbered codes have the meaning given here. *: point of attachment. Aph(CCprAc) = 4-aminophenylalanine acylated on the ring amine with 1-cyano-1-cyclopropanecarboxylic acid, N#CC1(C(=O)Nc2ccc(C[C@H](N[*:1])C(=O)[*:2])cc2)CC1; Aph(MSAc) = 4-aminophenylalanine acylated on the ring amine with 2-methanesulfonylacetic acid, CS(=O)(=O)CC(=O)Nc1ccc(C[C@H](N[*:1])C(=O)[*:2])cc1; Aph(Prp) = 4-aminophenylalanine acylated on the ring amine with propionic acid, CCC(=O)Nc1ccc(C[C@H](N[*:1])C(=O)[*:2])cc1; 3MeBn = 3-methylbenzylidene (m-xylene unit) bridging two Cys S atoms via thioethers, from alpha,alpha'-dibromo-m-xylene; Aph(iNic) = 4-aminophenylalanine with isonicotinoyl on the ring amine, O=C(Nc1ccc(C[C@H](N[*:1])C(=O)[*:2])cc1)c1ccncc1; Aph(Bz) = 4-aminophenylalanine with benzoyl on the ring amine, O=C(Nc1ccc(C[C@H](N[*:1])C(=O)[*:2])cc1)c1ccccc1; Af3(DkpAc) = 3-amino-L-phenylalanine acylated on the ring amine with 2-(3,6-dioxopiperazin-2-yl)acetic acid; Phe(3-NHCO(CH2)3SO2NH2) = N[C@@H](Cc1cccc(NC(=O)CCCS(N)(=O)=O)c1)C(=O)O; APAc″ = 2-(4-(amino)piperidin-1-yl)acetic acid, NC1CCN(CC(=O)*)CC1; DOTA = O=C(O)CN1CCN(CC(=O)O)CCN(CC(=O)*)CCN(CC(=O)O)CC1; Acetyl(2-(piperazin-1-yl)) = O=C(CN1CCNCC1)*; mXylylene = c1cc(C[*:1])cc(C[*:2])c1; PPAc″ = not defined here; Dap = NC[C@H](N)C(=O)O
# B1: 3BP-4174: DOTA-APAc-Val-{Asp-[Cys(3MeBn)-Glu-pro-Asp-Trp-Leu-Thr-Trp-Dap}-Cys]-NH2 (peptide)
# peptide: {DOTA-APAc″}-VDCE[dP]DWLTW[Dap]C-NH2
# modifications: lactam 2-11; linker 3-12 via mXylylene
# notes: Bicyclic peptide with uncomplexed DOTA; also called DPI-4174
# B2: 3BP-3583: DOTA-APAc-Val-Tyr-[Cys(3MeBn)-Glu-pro-Asp-Trp-Leu-Thr-Trp-Ser-Cys]-NH2 (peptide)
# peptide: {DOTA-APAc″}-VYCE[dP]DWLTWSC-NH2
# modifications: linker 3-12 via mXylylene
# notes: Cyclic peptide with uncomplexed DOTA; also called DPI-3583
# B3: 3BP-4183 (peptide)
# peptide: {DOTA-APAc″}-VYCE[dP]D[Aph(iNic)]LTWSC-NH2
# modifications: linker 3-12 via mXylylene
# B4: 3BP-4171 (peptide)
# peptide: {DOTA-APAc″}-VYCE[dP]D[Aph(Bz)]LTWSC-NH2
# modifications: linker 3-12 via mXylylene
# B5: 3BP-4347 (peptide)
# peptide: {DOTA-APAc″}-VYCE[dP]D[Aph(Prp)]LTWSC-NH2
# modifications: linker 3-12 via mXylylene
# B6: 3BP-4452 (peptide)
# peptide: {DOTA-PPAc″}-QCE[dP]D[Phe(3-NHCO(CH2)3SO2NH2)]LTWSC-NH2
# modifications: linker 2-11 via mXylylene; reading uncertain
# notes: also called DPI-4452
# B7: 3BP-4357 (peptide)
# peptide: {DOTA-APAc″}-VYCE[dP]D[Aph(CCprAc)]LTWSC-NH2
# modifications: linker 3-12 via mXylylene
# B8: 3BP-4360 (peptide)
# peptide: {DOTA-APAc″}-VYCE[dP]D[Aph(MSAc)]LTWSC-NH2
# modifications: linker 3-12 via mXylylene
# B9: 3BP-4288 (peptide)
# peptide: {DOTA-APAc″}-VYCE[dP]D[Af3(DkpAc)]LTWSC-NH2
# modifications: linker 3-12 via mXylylene
# B10: 3BP-4503: DOTA-{Glu-[Cys(3MeBn)-Glu-pro-Asp-Af3(Cpsu)-Leu-Thr-Trp-Dap}-Cys]-NH2 (peptide)
# peptide: {DOTA}-ECE[dP]D[Phe(3-NHCO(CH2)3SO2NH2)]LTW[Dap]C-NH2
# modifications: lactam 1-10; linker 2-11 via mXylylene
# notes: Bicyclic peptide with uncomplexed DOTA; also called DPI-4503
# B11: 3BP-4452: DOTA-PPAc-Gln-[Cys(3MeBn)-Glu-pro-Asp-Af3(Cpsu)-Leu-Thr-Trp-Ser-Cys]-NH2 (peptide)
# peptide: {DOTA-Acetyl(2-(piperazin-1-yl))}-QCE[dP]D[Phe(3-NHCO(CH2)3SO2NH2)]LTWSC-NH2
# modifications: linker 2-11 via 3MeBn
# notes: Cyclic peptide with uncomplexed DOTA; also called DPI-4452
# Experiments:
# [1] = target: T1, human carbonic anhydrase 4 (CAIV), biotinylated (Sino Biological Cat #10472-H08H) (human, UniProt P22748 19-283, biotinylated (sites not given)); assay: SPR (Biacore T200), biotinylated CAIV captured with Biotin CAPture Kit; limit of the category in which no binding is told
# T1 construct: Bought protein, biotinylated and captured with the Biotin CAPture Kit; also called hCAIV-bio; carbonic anhydrase IV
# T1 sequence (P22748 19-283 limits assumed): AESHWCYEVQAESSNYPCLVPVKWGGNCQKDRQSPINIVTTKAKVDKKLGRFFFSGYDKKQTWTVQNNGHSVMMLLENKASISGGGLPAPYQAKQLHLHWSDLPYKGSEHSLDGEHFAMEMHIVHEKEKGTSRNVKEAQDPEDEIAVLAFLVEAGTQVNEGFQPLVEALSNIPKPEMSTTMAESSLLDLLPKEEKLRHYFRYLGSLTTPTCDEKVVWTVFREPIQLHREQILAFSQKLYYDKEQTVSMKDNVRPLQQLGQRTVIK
# [2] = target: T2, human carbonic anhydrase 14 (CAXIV), biotinylated (Sino Biological Cat #10458-H08H) (human, UniProt Q9ULX7 16-290, biotinylated (sites not given)); assay: SPR (Biacore T200), biotinylated CAXIV captured with Biotin CAPture Kit; limit of the category in which no binding is told
# T2 construct: Bought protein, biotinylated and captured with the Biotin CAPture Kit; also called hCAXIV-bio; carbonic anhydrase XIV
# T2 sequence (Q9ULX7 16-290 limits assumed): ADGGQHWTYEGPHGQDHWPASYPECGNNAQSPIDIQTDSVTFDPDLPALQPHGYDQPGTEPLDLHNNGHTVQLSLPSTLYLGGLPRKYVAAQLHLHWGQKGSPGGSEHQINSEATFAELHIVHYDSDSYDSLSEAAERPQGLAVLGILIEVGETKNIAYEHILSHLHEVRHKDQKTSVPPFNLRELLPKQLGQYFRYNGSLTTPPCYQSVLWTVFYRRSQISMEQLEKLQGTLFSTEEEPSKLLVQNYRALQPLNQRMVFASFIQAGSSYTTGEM
# [3] = target: T3, human carbonic anhydrase 12 (CAXII), biotinylated (Sino Biological Cat #10617-H08H) (human, UniProt O43570 25-301, biotinylated (sites not given)); assay: SPR (Biacore T200), biotinylated CAXII captured with Biotin CAPture Kit; limit of the category in which no binding is told
# T3 construct: Bought protein, biotinylated and captured with the Biotin CAPture Kit; also called hCAXII-bio; carbonic anhydrase XII
# T3 sequence (O43570 25-301 limits assumed): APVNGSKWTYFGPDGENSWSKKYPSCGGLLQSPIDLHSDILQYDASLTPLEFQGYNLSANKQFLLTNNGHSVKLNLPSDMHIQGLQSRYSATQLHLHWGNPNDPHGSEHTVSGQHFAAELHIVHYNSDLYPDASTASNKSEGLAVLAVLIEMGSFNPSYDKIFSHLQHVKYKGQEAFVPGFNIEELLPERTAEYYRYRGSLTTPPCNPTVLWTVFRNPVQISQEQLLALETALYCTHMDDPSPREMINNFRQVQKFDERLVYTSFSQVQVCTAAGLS
# [4] = target: T4, human carbonic anhydrase 9 (CAIX) (human, UniProt Q16790 38-459); assay: FACS competition on HT-29 cells, competitor tracer 3BP-2776; category C = pIC50 6.1-7.0
# Experimental: (§1) CAIX-expressing human HT-29 colorectal cancer cells (DSMZ, RRID: CVCL_0320) were cultured in McCoys's 5A modified medium (Biochrom, #F1015) including 10% fetal calf serum (FCS), 2 mM L-glutamine, 100 U/ml penicillin and 100 μg/mL streptomycin. Cells were detached with Accutase (Biolegend, #423201) and washed in FACS buffer (PBS including 1% FCS). Cells were diluted in FACS buffer to a final concentration of 500.000 cells per ml. 200 μL of the cell suspension were transferred to a u-shaped non-binding 96-well plate (Greiner) and cells were washed in ice-cold FACS buffer.
# (§2) When biotinylated compounds were used an additional incubation step with 1 μg/mL APC-Streptavidin (Miltenyi; #130-106-791) in 50 μL FACS buffer for 30 minutes on ice was performed.
# (§3) Cells were washed twice with ice-cold FACS buffer and analyzed in an Attune NxT flow cytometer (Thermo Fisher). Median fluorescence intensities (MFI) of the APC/Cy5-channel were calculated by Attune NxT software.
# [5] = target: T4, human carbonic anhydrase 9 (CAIX); assay: FACS competition on HT-29 cells, competitor tracer 3BP-4149; category C = pIC50 6.1-7.0
# Experimental: as §1, §2, §3
# [6] = target: T5, human carbonic anhydrase XIV (CAXIV), biotinylated (human, UniProt Q9ULX7 16-290, biotinylated); assay: SPR, biotinylated CAXIV captured (Biotin CAPture)
# T5 construct: Bought (SinoBiological Cat #10458-H08H); also called hCAXIV-bio
# T5 sequence (Q9ULX7 16-290 limits assumed): as the sequence (Q9ULX7 16-290 limits assumed) above
# Text: (§4) For each test compound, SPR raw data in the form of resonance units (RU) were plotted as sensorgrams using the Biacore™ T200 control software. The signal from the blank sensorgram was subtracted from that of the test compound sensorgram (blank corrected). The blank corrected sensorgram was corrected for baseline drift by subtracting the sensorgram of a SCK run without the test compound (running buffer only). […] Raw data and fit results were imported as text files in IDBS. The pKD value (negative decadic logarithm of dissociation constant) was calculated in the IDBS excel template.
# [7] = target: T6, human carbonic anhydrase IV (CAIV), biotinylated (human, UniProt P22748 19-283, limits assumed, biotinylated); assay: SPR, biotinylated CAIV captured (Biotin CAPture)
# T6 construct: Bought (SinoBiological, Cat # printed 10472-1H081H); also called hCAIV-bio
# T6 sequence (P22748 19-283 limits assumed): as the sequence (P22748 19-283 limits assumed) above
# Text: as §4
# [8] = target: Fc-fusion protein of human carbonic anhydrase IX (human, UniProt Q16790 38-414); assay: SPR, captured hCAIX-Fc; t1/2 category A: >15.0 min
# [9] = target: T7, human carbonic anhydrase XII (CAXII), biotinylated (human, UniProt O43570 25-301, biotinylated); assay: SPR, biotinylated CAXII captured (Biotin CAPture)
# T7 construct: Bought (SinoBiological Cat #10617-H08H); also called hCAXII-bio
# T7 sequence (O43570 25-301 limits assumed): as the sequence (O43570 25-301 limits assumed) above
# Text: as §4
Binder,pKD [1],pKD [2],pKD [3],pIC50 [5] [pic50],other results
B1,< 6,< 6,< 6,–,–
B2,< 6,< 6,< 6,–,–
B3,–,–,–,–,pIC50 [4]: 6.1 to 7 pic50
B4,–,–,–,–,pIC50 [4]: 6.1 to 7 pic50
B5,–,–,–,6.1 to 7,–
B6,–,–,–,–,"pKD [6]: < 6 pkd; pKD [7]: < 6 pkd; t1/2 (half-life of the complex, SPR) [8]: > 15 min; pKD [9]: < 6 pkd"
B7,–,–,–,6.1 to 7,–
B8,–,–,–,6.1 to 7,–
B9,–,–,–,6.1 to 7,–
B10,< 6,< 6,< 6,–,–
B11,< 6,< 6,< 6,–,–
